Laboratory results: paper PMC8386582

Target: aCD19A (anti-CD19-A192) Nanoworm
Test: SEC-MALS

B1: aCD19A (anti-CD19-A192) Nanoworm (scFv, V domains shown)
VH: QVQLQQSGAELVRPGSSVKISCKASGYAFSSYWMNWVKQRPGQGLEWIGQIWPGDGDTNYNGKFKGKATLTADESSSTAYMQLSSLASEDSAVYFCARRETTTVGRYYYAMDYWGQGTTVTVSS
VL: DIQLTQSPASLAVSLGQRATISCKASQSVDYDGDSYLNWYQQIPGQPPKLLIYDASNLVSGIPPRFSGSGSGTDFTLNIHPVEKVDAATYHCQQSTEDPWTFGGGTKLEIK
- stoichiometry N: 186
